Experimental data as given in patent US20110177501.

Legend:
[1] = target: 6-IATR-E. coli SSB (W88C) W88C (mature protein numbering as printed) (Escherichia coli) (UniProt P0AGE0); details: data not shown
[2] = test system: AddAB helicase-nuclease (nuclease-deficient AddA D1172A, AddB D961A) AddA D1172A, AddB D961A (Bacillus subtilis); details: unwinding monitored with IDCC-SSB at low ionic strength (20 mM NaCl), 2 mM MgCl2, ATP, 37 C; weaker at 200 mM NaCl

Row | Substance | activity (fold fluorescence (+/- DNA)) [1] | activity (bp s-1 per binding site) [2]
1 | poly-dT | 4.5 | –
2 | EcoRI-linearized pBR322 | – | 1000
